In the nanobody polyreactivity screen of Harvey et al. (2022):

experiment: yeast display, Sf9 membrane polyspecificity reagent, FACS + sequencing; frameworks hold sequencing errors
In short: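 Polyreactivity labels are assigned by the sorting gate from which each nanobody was recovered. The gates were low and high (top ~1%), set on anti-HA fluorescence for expression and streptavidin fluorescence for reagent binding. Before sorting, galactose-induced (36–48 hours) yeast display cells were stained for 1 hour at 4 °C with 10% biotinylated, detergent-solubilized Sf9 membrane reagent.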

With “QVQLVESGGGLVQAGGSLRLSCAASGRTFSDYTMGWYRQAPGKERELFAAISGSVVNTYYADSVKGRFTISRDNAKNTVYLQMNSLKPEDTAVYYCAKDRIFYHYALYRWRVESYYWGQGTQVTVSS” as the sequence, how does the “polyreactivity (PSR sort gate)” value read?
Its value is “low polyreactivity”.

For “QVQLVESGGGLVQAGGSLRLSCAASGLIFTPYAMGWYRQAPGKERELVAAINYGGSRTYYADSVKGRFTISRDNAKNTVYLQMNSLKPEDTAVYYCNVVKRSFRYDYWGEGTQVTVSS”, which “polyreactivity (PSR sort gate)” value is on record?
Its value is “high polyreactivity”.

For “QVQLVESGGGLVQAGGSLSFSCAASGSIFDYNAMGWYRQAPGKERELVADIRGIGGSTYYADSVKGRFTISRDNAKNTFYLQMNSLIPEDTAVYYCNTSTLGGYYWGQGTQVTVSS”, which “polyreactivity (PSR sort gate)” value is on record?
The value was “low polyreactivity”.

For “QVQLVESGGGLVQAGGSLRLSCAATGINITSNTMGWYRLAPGKEREFVASINWNGSSTYADSVKGRFTISRDNAKNTVYLQMNSLKPEDTAVYYCNADYNRNSVQFSLYDYWGQGTQVTVSS”, which “polyreactivity (PSR sort gate)” value is on record?
Its value is “low polyreactivity”.

For “QVQLVDSGGGLVQAGGSLRLSCAASGFTFTRYAMGWYRQAPGKERELVADITRGGSTNYADSVKARFTISRDNAKNTVYLQMNSLKPEDTAVYYCNAGAITNYDYCGQGTQVTVSS”, which “polyreactivity (PSR sort gate)” value is on record?
The value was “high polyreactivity”.

Which “polyreactivity (PSR sort gate)” value does the source give for “QVQLVESGGGLVQAGGSLRLSCAASGRIFRYKAMGWYRQAPGKERELVAAISGSGGSTYYADSVKGRFTISRDNAKNTVYLQMNSLKPEDTAVYYCNALYWIFNHGGYDYWGQGTQVTVSS” here?
Its value is “low polyreactivity”.

With “QVQLVESGGGLVQAGGSLRLSCAASGSTSYTNAMGWYRPAPGKERELVAGITRSGDSTYYADSVKGRFTISRDNAKNTVYLQMNSLKPEDTAVYYCAADIGDYWWGYYTGYYYWGQGTQVTVSS” as the sequence, how does the “polyreactivity (PSR sort gate)” value read?
The value was “high polyreactivity”.

With “QVQLVESGGGLVQAGGSLRLSCAASGSIFGVYAMGWYRPAPGKERELVAVIRWRGGSTYYADSVKGRFTISRDNAKNTVYLQMNSLKPEDTAVYYCAARRHIVVATYDRRYDYWGQGTQVTVSS” as the sequence, how does the “polyreactivity (PSR sort gate)” value read?
The value was “low polyreactivity”.

Which “polyreactivity (PSR sort gate)” value does the source give for “QVQLVESGGVLVKAGGSLRLSCAASGRIFGYYAMGWYIQAPGKERELFAAITYSSGRTYYADSVKGRFTISRDNAKNTFYLQMNSLKPEDTAVYYCAARYHYYLSPATYYYWGQGTQVTVSS” here?
Its value is “high polyreactivity”.

With “QVQLVESGGGLVQAGGSLRLSCAASGIIFGPYAMGWYIQAPGKERELVAAITDGGITYYADSVKGRFTISRDNAKNTVYLQMNSLKPEDTAVYYCAAESGYPVYTYVSSGDYWGQGTQVTVSS” as the sequence, how does the “polyreactivity (PSR sort gate)” value read?
The value was “low polyreactivity”.

With “QVQLVESGGGLVQAGGSLRLSCAASRYIFSRNAMGWYRQAPGKERELVAAISLRGGSTYFADSVKGRFTISRDNAKNTVYLQMNSLKPEDTAVYYCAAPLFSGYDYWGQGTQVTVSS” as the sequence, how does the “polyreactivity (PSR sort gate)” value read?
The value was “low polyreactivity”.

For “QVQLVESGGGLVQAGGSLRLSCAASGRTFIGYAMGWYRQAPGKERELVAAISRGGSTKYADSVKGRFTISRDNAKNTVYLQMNSLKPEDTAVYYCAVGWSYYAGLRHRYYSGFDYWGQGTQVTLSS”, which “polyreactivity (PSR sort gate)” value is on record?
Its value is “low polyreactivity”.

With “QVQLVESGGGLVQAGGSLRLSCAASGSNFRVNAMGWYRQAPGKERELVAASSSGGSTHYADSVKGRFTISRDNAKNTFYLQMISLKPEDTAVYYCAVRYALGPYLWYYWGQGTQVTVSS” as the sequence, how does the “polyreactivity (PSR sort gate)” value read?
Its value is “high polyreactivity”.

Which “polyreactivity (PSR sort gate)” value does the source give for “QVQLVESGGGLVQAGGSLRLSCAASGSTLNSYVMGWYRQAPGKERELVATIRSGSSTNYADSVKGRFTISRDNAKNTVYLQMNSLKPEDTAVYYCAADAYSLCYDSWGQGTQVTVSS” here?
Its value is “low polyreactivity”.

For “QVQLVESGGGLVQAGGSLRLSCAASGSTYYENTMGWYRQAPGKEREMVAAISFRGGSTYYADSVKGRFTISRDNAKNTVYLQMNSLKPDDTAVYYCAKEYYTVRLYDYWGQGTQGTVSS”, which “polyreactivity (PSR sort gate)” value is on record?
The value was “low polyreactivity”.

For “QVQLVESGGGLVQAGGSLRLSCAASGSTFIYYTMGWYRQAPGKERELVAAIPSSGGSTYYADSVKGRFTISRDNAKNTVYLQMNSLKPEDTAVYYCADDGTYIKFAKLYRRYDYWGQGTQVTVSS”, which “polyreactivity (PSR sort gate)” value is on record?
Its value is “low polyreactivity”.

Which “polyreactivity (PSR sort gate)” value does the source give for “QVQLVESGGGLVQAGGSLRLSCAASGITFEGYAMGWYRQAPGKERELVAAITGSGSTTYYADSVKGRFTISRDNAKNTVYLQMNSLKPEDTAVYYCAADVSYKLYWGQGTQVTVSS” here?
Its value is “low polyreactivity”.

With “QVQLVESGEGLVQAGGSLRLSCAASGITFFRNTMGWYRHAPGKERELVAAISKSGDNTYYADSVKVRFTISRDNAKNTVYLQMNSLKPEDTAVYYCNKAYRKFYYGYDYWGQGTQVTVSS” as the sequence, how does the “polyreactivity (PSR sort gate)” value read?
Its value is “high polyreactivity”.

For “QVQLVESGGGLVQAGVSLRLSCAASGSTSSRNAMGRYRQAPGKEWELVAAITSGTRTYYADSVKGRFTISRDNAKNTVYLQMNSLKPEDTAVYYCARGRVSRYTNTDYDYWGQGTQVTVSS”, which “polyreactivity (PSR sort gate)” value is on record?
The value was “high polyreactivity”.

For “QVQLVESGGGLVQAGGSLRLSCADSGSISYYAIGWYRQAPRKESELVAAISSSGGSTYYADSVNGRFTISRDNAKNTVYLQMNSLKPEDTAVYYCAAAVTGCYASDYWGQGTQVTVSS”, which “polyreactivity (PSR sort gate)” value is on record?
Its value is “high polyreactivity”.

With “QVQLVESGGGLVQAGGSLRLSCAASGFIFWYYDMGWYRPAPGKEREFVAAITRSSGSTYYADSVKGRFTISRDNAKNTVYLQMNSLKPEDTAVYYCNADSVAYGDEYDYWGQGTQVTVSS” as the sequence, how does the “polyreactivity (PSR sort gate)” value read?
The value was “low polyreactivity”.

For “QVQLVESGGVLLQAGGSLRLSCAASGSIFYPYAMGWYRQAPGKERELFAAITYIDADTYYADSVKGRFTISRDNAKNTVYLQMNSLKPEDTAVYYCAAEIPVYQGTGEDDYWGQGTQVTVSS”, which “polyreactivity (PSR sort gate)” value is on record?
The value was “low polyreactivity”.

Which “polyreactivity (PSR sort gate)” value does the source give for “QVQLVESGGGLVQAGGSLRLSCAASGIIFAYNAMGWYRQAPGKERELVAAISVIGGTTYYADSVKGRFTISRDNAKNTVYLQMNSLKPEDTAVYYCAVDSVQYGGGYERLHELYYWGQGTQVTVSS” here?
Its value is “low polyreactivity”.

With “QVQLVESGGGLVQAGGSLRLSCAASGFTIISYTMGWYRQAPGKERELVAAIRGGGRTYYADSVKGRFTISRDNAKNTVYLQMNSQKPEDTAVYYCASRLRYGGHYDYWGQGTQVTVSS” as the sequence, how does the “polyreactivity (PSR sort gate)” value read?
Its value is “high polyreactivity”.

For “QVQLVESVGGLVQAGGSHRLSCAASGRTFYQYTMGWSRQAPGTERELVAAITTSTGNTYYADSVKVRFTISRDNAKNTVYLQMNRLKPADTAVYECAADTVWPLDYWGLGTQVTVSS”, which “polyreactivity (PSR sort gate)” value is on record?
The value was “low polyreactivity”.

For “QVQLVESGGGLVQAGGSLRLSCAASGGILDTYAMGWDRQAPGKERELVAAITSGGNTNYADSVKGRFTISRDNAKNTFYLQMNSLKPEDTAVYFCNVVSWYYFFRPWEYDYWGQGTQVTVSS”, which “polyreactivity (PSR sort gate)” value is on record?
The value was “low polyreactivity”.

Which “polyreactivity (PSR sort gate)” value does the source give for “QVQLVESGGGLVQAGGSLRLSCAASGGPFWYYAMGWYRQAPGKERELVAAITRGGSTSYADSVKGRFTISRDNAKKTVYLQMNSLKPEDTAVYYCNARPYSSYWRYNYWGQGTQVTVSS” here?
Its value is “high polyreactivity”.

Which “polyreactivity (PSR sort gate)” value does the source give for “QVQLVESGGGLVQAGGSLRLSCAASGRTFNTYAMGWYSQAPGKERELVAAISRRGGSTYYADSVKGRFTISRDNAKNTDYLQMNSLKPEDTAVYYCAAGNSVGLGWGQGTQVTVSS” here?
Its value is “high polyreactivity”.

With “QDQLQESGGGLVQAGGSLRLSCAASGSISYPRTMGWYRQAPGKEREFVAGIGVGGTTYYADSVKGRFTISRDNAKNTVYLQMKSLKPEDAAVYYCAVAAYYDKYYVYWGQGTQVTVSC” as the sequence, how does the “polyreactivity (PSR sort gate)” value read?
The value was “low polyreactivity”.

With “QVQLVESGGGLVQAGGSLRLSCAASGITFYVYAMGWYRQAPGKERELVAAINYDSGSTYYADSVKGRFTISRDNAKNTVYLQMNSLKPEDTAVYYCATDGVNPFYAYDFWGQGTQVTVSS” as the sequence, how does the “polyreactivity (PSR sort gate)” value read?
Its value is “low polyreactivity”.

Which “polyreactivity (PSR sort gate)” value does the source give for “QVQLVESGGGLVQAGGSLRLSCAASGSTFTGNAMGWYRQAPGKERELVAAITDRGGSTYADSVKGRFTISRDNAKNTVYLQMNSLKPEDTAVYYCATRRDLHDRYEYDYWGQGTQVTVSS” here?
The value was “low polyreactivity”.

Which “polyreactivity (PSR sort gate)” value does the source give for “QVQLLESGGGLVQAGGTLRLSCAASGSIIGRNAMGWYRQAPGKERELVAAITWRTGSTFYADSVKGRFTISRDNAKNTVYLQMNSLKPEDTAVYYCNAAGPAYSYYHWLWGDYNSWRQGTQVTVSS” here?
The value was “low polyreactivity”.
